Experimental data as given in patent publication US20230374148A1, “BINDING MOLECULES THAT MULTIMERISE CD45” (UCB BIOPHARMA SRL, priority 2020, published 2023).

B1: 4133-6294 BYbe: anti-CD45 BYbe (Fab-scFv): 4133 Fab HC-G4S linker-6294 scFv heavy chain paired with 4133 light chain (antibody)
heavy: QEQLVESGGGLVQPEGSLTLTCTASGFSFSGNYYMCWVRQAPGKGLEWIGCLYTGSSGSTYYASWAKGRFTISKTSSTTVTLQMTSLTAADTATYFCARDLGYEIDGYGGLWGQGTLVTVSSGQPKAPSVFPLAPCCGDTPSSTVTLGCLVKGYLPEPVTVTWNSGTLTNGVRTFPSVRQSSGLYSLSSVVSVTSSSQPVTCNVAHPATNTKVDKTVAPSTCSKPGGGGSGGGGSEVQLVESGAELARPGASVKMSCKASGYTFTSYTMHWVKQRPGQCLEWIGYINPSSGYTEYNQKFKDKTTLTADKSSSTAYLQLSSLTSEDSAVYYCARVGDGFYPSWLAYWGQGTLVTVSSGGGGSGGGGSGGGGSGGGGSDIQMTQSPKFLLVSAGDRVTITCKASQSVRNDVAWYQQKPGQSPKLLIFYASKRYTGVPDRFTGSGYGTDFTFTISTVQAEDLAVYFCQQDYSSPTTFGCGTKLEIK
light: AQVLTQTPSPVSAVVGGTVSISCQASQSVYNNNNLSWYQQKPGQPPKLLIYDASKLASGVPSRFKGSGSGTQFTLTISGVQCDDAATYYCLGGYYSSGWYFAFGGGTKVVVKRTPVAPTVLIFPPAADQVATGTVTIVCVANKYFPDVTVTWEVDGTTQTTGIENSKTPQNSADCTYNLSSTLTLTSTQYNSHKEYTCKVTQGTTSVVQSFNRGDC

Columns and labels:
[1] = system: SU-DHL-4; test: Apoptosis of cell lines: SU-DHL-4; format: cell-based; settings: SU-DHL-4, 21 hrs
Text: (§1) The following cell lines representing various leukaemia's and lymphoma's, as classified by ATCC (www.atcc.org/), were used: Jurkat—acute T-cell leukaemia; CCRF-SB—B-cell acute lymphoblastic leukaemia; MC116—B-cell undifferentiated lymphoma; Raji, Ramos—Burkitt lymphoma (rare form of B-cell non-Hodgkin lymphoma); SU-DHL-4, SU-DHL-5, SU-DHL-8, NU-DUL-1, OCI-Ly3—Diffuse large B-cell lymphoma; THP-1—acute monocytic leukaemia; and Dakiki—B cell nasopharyngeal carcinoma.
(§2) Prior to an assay being performed, 1 vial of each of the above cell lines was thawed in a 37° C. water bath and then added to 20 ml complete media (RPMI 1640+2 mM GlutaMAX+1% Pen/Strep, all previous supplied by Invitrogen, +10% Fetal Bovine Serum (FBS), Sigma Aldrich). Cells were spun (500 g, 5 min, at RT) and re-suspended in 20 ml complete media to wash and spun again. Cells were resuspended in 10 ml complete media and then counted using a ChemoMetec NucleoCounter NC-3000. 6×10^6 cells of each cell line were spun (500 g, 5 min, at RT) and re-suspended in 4.8 ml complete media. 1×10^5 cells in 80 μl were then added to each well of a Corning Costar 96-well, cell culture treated, U-shaped-bottom microplate (cat no. 07-200-95). The plate was rested in a 37° C., 5% CO2 incubator for 2 hrs
(§3) Stocks of 4133-6294 BYbe and NegCtrl BYbe at 2500 nM in complete media were prepared. In a Greiner 96-well non-binding microplate, both reagents were serially diluted in complete media 1 in 5, seven times to produce to form an 8-point dose curve. […] (final well concentrations 500-0.0064 nM) was added to the cells. Each concentration was produced in triplicate. Camptothecin (cat no. C9911-100MG, Sigma Aldrich) and Staurosporine (cat no. 56942-200UL, Sigma Aldrich) were added as positive controls of apoptosis. Both were diluted in complete media and added to the well to produce a final concentration of 5 μM. Additional positive controls included anti-thymocyte globulin (ATG, indicated by FDA for use in conditioning regimens), Rituximab (anti-CD20, indicated by FDA for Non-Hodgkin Lymphoma and Chronic Lymphocytic Leukaemia) and Campath (anti-CD52, indicated by FDA for B-cell Chronic Lymphocytic Leukaemia). Anti-thymocyte globulin, Rituximab and Campath were added to the wells to produce final concentrations of 200 μg/ml, 500 nM and 200 μg/ml, respectively. […]
(§4) Following the incubation, the plates were spun at 500 g, 5 min, RT, the buffer was aspirated with a BioTek ELx405 microplate washer, and the cells were re-suspended in FACS buffer (PBS+1% bovine serum albumin (BSA)+0.1% NaN3+2 mM EDTA, Sigma Aldrich) to wash and then re-spun and buffer was aspirated to leave the cells in 20 μl residual media. […] Cells were analysed using the Bio-Rad ZE5 Cell Analyzer. […]

[2] = system: THP-1; test: Apoptosis of cell lines: THP-1; format: cell-based; settings: THP-1, 21 hrs
Text: as §1, §2, §3, §4

Row | Molecule | Campath mean (%) cell reduction ([1]; 200 μg/ml) [%] | Campath mean (%) cell reduction ([2]; 200 μg/ml) [%] | Bottom (%) level of % cell reduction [1] [%] | Top (%) level of % cell reduction [1] [%] | Bottom (%) level of % cell reduction [2] [%] | Top (%) level of % cell reduction [2] [%]
1 | Campath: anti-CD52, clinical grade, indicated by FDA for B-cell Chronic Lymphocytic Leukaemia; positive control [reference compound] | 92.46 | 15.40 |  |  |  | 
2 | B1 |  |  | 16.98 | 91.88 | 8.14 | 60.72
